In article PMC9585082, “Structural insight into the ligand binding mechanism of aryl hydrocarbon receptor” (Nature Communications, 2022) one finds Kd data, which are given here for two molecules.

Holding throughout (conditions): both partners purified
Experiment [1] deals with T1, 6xHis-tagged dAHR PAS-B, Red-labeled (Drosophila melanogaster, UniProt O61543 264-381, labeled with the MO Red-Tris-NTA protein labeling kit).
T1 construct: Aryl hydrocarbon receptor homolog spineless (dAHR), Drosophila melanogaster, UniProt O61543, PAS-B domain aa 264-381; the only His-tagged dAHR PAS-B construct it describes is the 6xHis-SUMO fusion (pET-28s), so SUMO may also have been present; also called Red-labeled dAHR PAS-B; source: purified; E. coli Rosetta (DE3) is the host named for pET-28s-dAHR PAS-B
T1 sequence (looked up): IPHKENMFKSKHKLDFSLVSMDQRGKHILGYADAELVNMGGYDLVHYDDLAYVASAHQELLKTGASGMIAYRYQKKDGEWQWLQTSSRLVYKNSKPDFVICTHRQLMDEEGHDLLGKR
Put plainly: MST; 50 nM Red-labeled 6xHis-dAHR PAS-B; mARNT PAS-B 100 µM to 3 nM; PBS, 0.05% Tween-20, 2.5% DMSO, 0.5 mM TCEP; without αNF.

In experiment [2] the target is T1, 6xHis-tagged dAHR PAS-B, Red-labeled. Put plainly: MST; 50 nM Red-labeled 6xHis-dAHR PAS-B; mARNT PAS-B 100 µM to 3 nM; PBS, 0.05% Tween-20, 2.5% DMSO, 0.5 mM TCEP; with 1 µM αNF.
The target of experiment [3] is T2, 6xHis-SUMO-tagged dAHR PAS-B Y305A (Drosophila melanogaster, UniProt O61543 264-381, Y305A).
T2 construct: Aryl hydrocarbon receptor homolog spineless (dAHR), Drosophila melanogaster, UniProt O61543, PAS-B domain aa 264-381; source: E. coli Rosetta (DE3), purified as the WT protein; fusion tag retained
T2 sequence (looked up): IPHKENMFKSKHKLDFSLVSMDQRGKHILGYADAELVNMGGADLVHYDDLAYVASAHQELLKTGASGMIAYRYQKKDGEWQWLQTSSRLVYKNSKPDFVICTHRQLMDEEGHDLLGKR
Put plainly: ELISA; 100 nM 6xHis-SUMO-dAHR PAS-B (WT or mutants) coated on plates; GST-mARNT PAS-B 0.004-10 µM added, 1 h room temperature; anti-GST detection; four-parameter 'log(agonist) vs response' fit.

Experiment [4] addresses T3, 6xHis-SUMO-tagged dAHR PAS-B Y310A (Drosophila melanogaster, UniProt O61543 264-381, Y310A).
T3 construct: Aryl hydrocarbon receptor homolog spineless (dAHR), Drosophila melanogaster, UniProt O61543, PAS-B domain aa 264-381; source: E. coli Rosetta (DE3), purified as the WT protein; fusion tag retained
T3 sequence (looked up): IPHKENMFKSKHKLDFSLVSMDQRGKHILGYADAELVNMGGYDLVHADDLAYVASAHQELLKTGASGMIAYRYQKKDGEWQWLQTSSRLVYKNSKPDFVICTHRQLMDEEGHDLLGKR
The description is as above.

The target in experiment [5] is T4, 6xHis-SUMO-tagged dAHR PAS-B (wild type) (Drosophila melanogaster, UniProt O61543 264-381).
T4 construct: Aryl hydrocarbon receptor homolog spineless (dAHR), Drosophila melanogaster, UniProt O61543, PAS-B domain aa 264-381; The printed name '6xHis-SUMO-dAHR PAS-B' puts the tag first; the end is not otherwise stated; also called 6xHis-SUMO-dAHR PAS-B; WT protein; source: E. coli Rosetta (DE3), purified; fusion tag retained
T4 sequence (looked up): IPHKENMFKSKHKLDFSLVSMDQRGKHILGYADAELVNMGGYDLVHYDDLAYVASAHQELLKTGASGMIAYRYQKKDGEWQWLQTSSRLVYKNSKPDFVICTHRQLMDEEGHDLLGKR
The description is as above.

B1: mouse ARNT PAS-B domain (aa 360-465), fusion tag removed (domain or fragment)
chain: not shown
notes: Aryl hydrocarbon receptor nuclear translocator (ARNT), mouse, PAS-B domain aa 360-465; Subcloned into pET-28s 'similarly' to the AHR PAS-B domains; tag removed with ULP1; also called mARNT PAS-B
In general, Kd refers to a measure of binding affinity in units of concentration. Read a high Kd as weaker binding. B1: the Kd in experiment [1] is 0.3 µM; in experiment [2], ~0.25 µM.

B2: GST-tagged mARNT PAS-B (domain or fragment)
chain: not shown
notes: Aryl hydrocarbon receptor nuclear translocator (ARNT), mouse, PAS-B domain aa 360-465; GST retained for ELISA; also called GST-fused recombinant mARNT PAS-B; source: pGEX-6P-1 construct, purified
Consider B2, for which the Kd in experiment [3] is 1.8 µM; in experiment [4], 0.5 µM; in experiment [5], ~0.38 µM.
